Like-named read-outs stand apart in the source and are kept apart here.
T1: mouse PRLR with an HA tag on HEK293 cells (mouse, UniProt Q08501 20-608)
T1 construct: whole, on cells; also called HEK293/mPRLR; rodent PRLR; not shown: HA tag
T1 sequence (looked up): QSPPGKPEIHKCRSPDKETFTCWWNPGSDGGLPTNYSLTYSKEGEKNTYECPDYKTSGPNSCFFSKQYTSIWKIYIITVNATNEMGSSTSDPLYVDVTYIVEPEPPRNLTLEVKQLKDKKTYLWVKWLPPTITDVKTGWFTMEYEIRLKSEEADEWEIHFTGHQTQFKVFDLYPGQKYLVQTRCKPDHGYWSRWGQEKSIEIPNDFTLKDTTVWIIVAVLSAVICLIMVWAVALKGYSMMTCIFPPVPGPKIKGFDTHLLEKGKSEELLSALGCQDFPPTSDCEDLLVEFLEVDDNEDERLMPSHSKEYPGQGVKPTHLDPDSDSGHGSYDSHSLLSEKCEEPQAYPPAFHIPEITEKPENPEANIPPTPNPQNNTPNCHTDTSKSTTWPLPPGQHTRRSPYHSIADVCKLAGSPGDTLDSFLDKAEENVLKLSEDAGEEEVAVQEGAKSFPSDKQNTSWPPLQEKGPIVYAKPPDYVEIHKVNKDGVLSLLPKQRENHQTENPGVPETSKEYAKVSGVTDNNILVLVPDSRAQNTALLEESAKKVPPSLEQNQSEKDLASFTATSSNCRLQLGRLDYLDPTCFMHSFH

T2: human prolactin receptor (PRLR) on cells (human, UniProt P16471 25-622)
T2 sequence: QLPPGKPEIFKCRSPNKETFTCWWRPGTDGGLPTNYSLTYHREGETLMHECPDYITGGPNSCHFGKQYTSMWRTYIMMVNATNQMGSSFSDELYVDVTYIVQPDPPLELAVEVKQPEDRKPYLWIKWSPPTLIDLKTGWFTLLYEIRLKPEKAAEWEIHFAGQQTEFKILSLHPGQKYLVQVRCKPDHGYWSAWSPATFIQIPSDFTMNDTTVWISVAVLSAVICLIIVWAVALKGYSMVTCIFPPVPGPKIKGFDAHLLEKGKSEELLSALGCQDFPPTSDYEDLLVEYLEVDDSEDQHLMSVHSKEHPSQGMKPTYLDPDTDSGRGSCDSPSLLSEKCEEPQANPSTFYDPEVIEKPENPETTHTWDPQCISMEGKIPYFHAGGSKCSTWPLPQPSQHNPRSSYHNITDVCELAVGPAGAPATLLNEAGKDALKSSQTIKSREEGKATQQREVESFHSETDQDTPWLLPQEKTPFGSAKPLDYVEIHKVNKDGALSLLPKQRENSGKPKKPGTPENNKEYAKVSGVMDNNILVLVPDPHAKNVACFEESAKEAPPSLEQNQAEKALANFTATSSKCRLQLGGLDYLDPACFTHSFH

T3: human prolactin receptor (PRLR) (human, UniProt P16471 25-622)
T3 sequence: T2 sequence

B1: H1H6762P (antibody, human IgG1, V domains shown)
VH: QVQLVESGGGVVQPGRSLRLSCAASGFTFSHYGMVWVRQPPGKGLEWVALISFDGTTKYYADSVKGRFTISRDNSKNTLYLQMNSLRAEDTAVYFCVGAIAAAAFDLWGRGTLVTVSS
VL: EIVMTQSPATLSVSPGERATLSCRASQSVSSDLAWYQQKPGQAPRLLIYSASARATGIPARFTGSGSGTDFTLTISSLQSEDFAVYYCQQYNNWPMYTFGQGTKLEIK
B2: H1H6790P (antibody, human IgG1, V domains shown)
VH: EVQLVESGGGLVQPGGSLRLSCAASGFTFSSYAMTWVRQAPGKGLEWVSAITGSVGNTYYADSVKGRFTISRDNSKNTLYLQMNSLGAEDTAEYYCAKGAGMTTNWYLDLWGRGTLVTVSS
VL: DIVMTQSPDSLAVSLGARATINCKSSQSVLYSSNNQNYLTWYQQKPGQPPKLLIKWASTRESGVPDRFSGSGSGTDFTLTISSLQAEDVAVYYCQQYASSPYTFGQGTKLEIK
B3: H1H6782P-DM1 (antibody, human IgG1, V domains shown)
VH: EVQLVESGGGLVQPGRSLRLSCAASGFTFDDYAMHWVRQAPGKGLEWVSGIIWNSGHIGYGDSVKGRFTISRDNAKKSLYLQMNSLRAEDTALYYCARDSGRYQSYFDYWGQGTLVTVSS
VL: DIQMTQSPSTLSASVGDRVTITCRASHIISSWLAWYQQKPGKAPKVLIFKASSLESGVPSRFSGSGSGTEFTLTISSLQPDDFATYYCQQYNTYSRTFGQGTKVEIK
modifications: DM1 conjugated through SMCC linker; attachment residues not stated
B4: H1H6782P (antibody, human IgG1, V domains shown)
VH: B3 VH
VL: B3 VL
B5: H1H6804P (antibody, human IgG1, V domains shown)
VH: QVTLKESGPVLVKPTQTLSLTCTVSGFSLSDAGMGVSWIRQPPGKALEWLAHIFSNDGKSYSTSLKSRLTISKDTSKRQVVLTMTNMDPVDTATYYCARIRTGTYSLYLDYWGQGTLVTVSS
VL: DIQMTQSPSSLSASVGDRVTITCRASQSINSYLNWYQQKPGKAPKLLLYFASSLQSGVPSRFSGSGSGTDFTLTISSLQPEDFASYYCQESYSTPWTFGQGTKVEIK
B6: H1H6958N2-DM1 (antibody, human IgG1, V domains shown)
VH: QVQLVESGGGVVQPGRSLRLSCGASGFTFRNYGMQWVRQGPGKGLEWVTLISFDGNDKYYADSVKGRFTISRDNSKNTLFLQMNSLRTEDTAVYYCARGGDFDYWGQGTLVTVSS
VL: DIQMTQSPSSLSASVGDRVTITCRASQDIRKDLGWYQQKPGKAPKRLIYAASSLHSGVPSRFSGSGSGTEFTLTISSLQPEDFATYYCLQHNSYPMYTFGQGTKLEIK
modifications: DM1 conjugated through SMCC linker; attachment residues not stated
B7: H1H6785P (antibody, human IgG1, V domains shown)
VH: EVQLVESGGGLVQPGGSLRLSCAASGFTFSSYEMNWVRQAPGKGLEWISYISSRGGTIYYADSIKGRFTIYRDNARNSLYLQMNSLRAEDTAIYYCARLSGVDIFDIWGQGTMVTVSS
VL: DIQMTQSPSSLSASVGDRVTITCRASQGISNYLAWYQQKPGKVPKLLIYFASTLQSGVPSRFSGGGSGTDFTLTISSLQPEDVATYYCQRYNSAPLTFGGGTKVEIK
B8: H1H6783P (antibody, human IgG1, V domains shown)
VH: QVQLQQSGPGLVKPSQTLSLTCAISGDSVSSNTFAWNWIRQSPSRGLEWLGRTYYRSKWYIDYAESVKSRITITPDTSKNQFSLQLNSVTPEDTALYYCAGGYTYAPRGAFDIWGQGTMVTVSS
VL: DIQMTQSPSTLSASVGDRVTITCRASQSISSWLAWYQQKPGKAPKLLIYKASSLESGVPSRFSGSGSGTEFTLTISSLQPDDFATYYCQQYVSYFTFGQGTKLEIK
B9: H1H6953N-DM1 (antibody, human IgG1, V domains shown)
VH: EVQLLESGGGLVQPGGTLRLSCAASGFTFSAYAMSWVRQAPGKGLEWVSSINVRAGDTYYADSVKGRFTISRDNSKNTLFLLMNSLRAEDTAAYYCAKARYSSNWGFDFWGQGTLVTVSS
VL: DIVMTQSPDSLTVSLGARTTINCQSSQTILHSSNNHNYLAWYQQKPGLPPKLLIYWSSTRESGVPDRFSGSGSGTDFTLTISSLQAEDVAIYYCQQYSNTPYTFGQGTKLEIN
modifications: DM1 conjugated through SMCC linker; attachment residues not stated

What was measured:
[1] = target: T1, mouse PRLR with an HA tag on HEK293 …; assay: FACS on HEK293/mPRLR cells
[2] = target: T2, human prolactin receptor (PRLR) on cells; assay: cell-based or functional assay
[3] = target: T3, human prolactin receptor (PRLR); assay: cell-based or functional assay
[4] = target: T3, human prolactin receptor (PRLR); assay: cell-based or functional assay; remark: listed apart in the source
[5] = target: T3, human prolactin receptor (PRLR); assay: cell-based or functional assay; remark: listed apart in the source
[6] = target: T3, human prolactin receptor (PRLR); assay: cell-based or functional assay; remark: listed apart in the source
[7] = target: T3, human prolactin receptor (PRLR); assay: cell-based or functional assay; remark: listed apart in the source
[8] = target: T3, human prolactin receptor (PRLR); assay: cell-based or functional assay; remark: listed apart in the source
[9] = target: T3, human prolactin receptor (PRLR); assay: cell-based or functional assay; remark: listed apart in the source
[10] = target: T3, human prolactin receptor (PRLR); assay: cell-based or functional assay; remark: listed apart in the source
[11] = target: T3, human prolactin receptor (PRLR); assay: cell-based or functional assay; remark: listed apart in the source
[12] = target: T3, human prolactin receptor (PRLR); assay: cell-based or functional assay; remark: listed apart in the source

Binder | binding result [1] | % Kill, MCF7/ATCC cells [4] [%] | % Kill, MCF7/PRLR cells [4] [%] | IC50, cell viability, MCF7/ATCC cells [4] [nM] | IC50, cell viability, MCF7/PRLR cells [4] [nM] | % Kill, T47D cells [5] [%] | IC50, cell viability, T47D cells [5] [nM] | % Kill, MCF7/PRLR cells [6] [%] | % Kill, MCF7 cells [6] [%] | % Kill, T47D cells [6] [%] | IC50, cell viability, MCF7/PRLR cells [6] [nM] | IC50, cell viability, MCF7 cells [6] [nM] | IC50, cell viability, T47D cells [6] [nM] | % Kill, PC3/PRLR cells [7] [%] | IC50, cell viability, PC3/PRLR cells [7] [nM] | other results
B1 | no binding | – | – | – | – | – | – | – | – | – | – | – | – | – | – | IC50, block of STAT5 reporter activation by 5 nM PRL in HEK293/hPRLR/STAT5-Luc cells [2]: 0.022 nM
B2 | no binding | – | – | – | – | – | – | – | – | – | – | – | – | – | – | –
B3 | – | 70 | 80 | 250 | 0.3 | 100 | 3 | 85 | 57 | 74 | 0.65 | 120 | 4.19 | 64 | 0.92 | IC50, cell viability, T47D cells, + 15 nM PRL [3]: 2 nM; IC50, cell viability, T47D cells, without PRL [3]: 1 nM
B4 | no binding | – | – | – | – | – | – | – | – | – | – | – | – | – | – | –
B5 | no binding | – | – | – | – | – | – | – | – | – | – | – | – | – | – | IC50, block of STAT5 reporter activation by 5 nM PRL in HEK293/hPRLR/STAT5-Luc cells [2]: 8 nM
B6 | – | 70 | 80 | 70 | 0.2 | 100 | 2 | 77 | 77 | 71 | 0.19 | 100 | 1.34 | 83 | 0.43 | IC50, cell viability, T47D cells, + 15 nM PRL [3]: 3 nM; IC50, cell viability, T47D cells, without PRL [3]: 1 nM; % Kill, MCF7/ATCC cells [8]: 72%; % Kill, MCF7/PRLR cells [8]: 83%; % Kill, PC3/hPRLR cells [8]: 79%; IC50, cell viability, MCF7/ATCC cells [8]: 90 nM; IC50, cell viability, MCF7/PRLR cells [8]: 0.2 nM; IC50, cell viability, PC3/hPRLR cells [8]: 0.5 nM; % Kill, 293/PRLR cells [7]: 95%; IC50, cell viability, 293/PRLR cells [7]: 0.1 nM
B7 | no binding | – | – | – | – | – | – | – | – | – | – | – | – | – | – | –
B8 | no binding | – | – | – | – | – | – | – | – | – | – | – | – | – | – | –
B9 | – | 70 | 80 | 90 | 0.3 | 100 | 1.5 | 76 | 55 | 79 | 0.29 | 100 | 1.64 | 67 | 0.86 | IC50, cell viability, MCF7/PRLR cells (PRLR 55X) [9]: 0.33 nM; IC50, cell viability, MCF/PRLR + ErbB2 cells (PRLR 55X) [9]: 0.33 nM; IC50, cell viability, NCI-N87/PRLR cells (PRLR 6X) [9]: 2.9 nM; IC50, cell viability, MCF7 cells (PRLR 3X) [10]: 82 nM; IC50, cell viability, T47D cells (PRLR 12X) [10]: 1.3 nM; IC50, cell viability, T47D/ErbB2 cells (PRLR 12X) [10]: 2.4 nM; % Kill, MCF7/ATCC cells [8]: 70%; % Kill, MCF7/PRLR cells [8]: 80%; % Kill, PC3/hPRLR cells [8]: 83%; IC50, cell viability, MCF7/ATCC cells [8]: 80 nM; IC50, cell viability, MCF7/PRLR cells [8]: 0.1 nM; IC50, cell viability, PC3/hPRLR cells [8]: 0.4 nM; IC50, cell viability, 293/PRLR cells (PRLR 18X) [11]: 0.43 nM; IC50, cell viability, PC3/PRLR cells (PRLR 13X) [12]: 0.68 nM; % Kill, 293/PRLR cells [7]: 95%; IC50, cell viability, 293/PRLR cells [7]: 0.28 nM

Source: patent US20180185504A1 (Regeneron, published 2018)
